Results reported in patent US11965039B2, “Compstatin analogues and their medical uses” (priority 2018, dated 2024).
Positions of bridges follow the written chain, without caps; N, C: chain ends.

B1: Compound 17 (peptide)
peptide: Ac-ICIWQDWGDHRCT-NH2
modifications: disulfide 2-12
SMILES: CC[C@H](C)[C@H](NC(C)=O)C(=O)N[C@H]1CSSC[C@@H](C(=O)N[C@H](C(N)=O)[C@@H](C)O)NC(=O)[C@H](CCCNC(=N)N)NC(=O)[C@H](Cc2c[nH]cn2)NC(=O)[C@H](CC(=O)O)NC(=O)CNC(=O)[C@H](Cc2c[nH]c3ccccc23)NC(=O)[C@H](CC(=O)O)NC(=O)[C@H](CCC(N)=O)NC(=O)[C@H](Cc2c[nH]c3ccccc23)NC(=O)[C@H]([C@@H](C)CC)NC1=O
B2: Compound 18 (peptide)
peptide: Ac-ICIWQDWGRHRCT-NH2
modifications: disulfide 2-12
SMILES: CC[C@H](C)[C@H](NC(C)=O)C(=O)N[C@H]1CSSC[C@@H](C(=O)N[C@H](C(N)=O)[C@@H](C)O)NC(=O)[C@H](CCCNC(=N)N)NC(=O)[C@H](Cc2c[nH]cn2)NC(=O)[C@H](CCCNC(=N)N)NC(=O)CNC(=O)[C@H](Cc2c[nH]c3ccccc23)NC(=O)[C@H](CC(=O)O)NC(=O)[C@H](CCC(N)=O)NC(=O)[C@H](Cc2c[nH]c3ccccc23)NC(=O)[C@H]([C@@H](C)CC)NC1=O
B3: Compound 22 (peptide)
peptide: Ac-ICIWQDWGEHRCE-NH2
modifications: disulfide 2-12
SMILES: CC[C@H](C)[C@H](NC(C)=O)C(=O)N[C@H]1CSSC[C@@H](C(=O)N[C@@H](CCC(=O)O)C(N)=O)NC(=O)[C@H](CCCNC(=N)N)NC(=O)[C@H](Cc2c[nH]cn2)NC(=O)[C@H](CCC(=O)O)NC(=O)CNC(=O)[C@H](Cc2c[nH]c3ccccc23)NC(=O)[C@H](CC(=O)O)NC(=O)[C@H](CCC(N)=O)NC(=O)[C@H](Cc2c[nH]c3ccccc23)NC(=O)[C@H]([C@@H](C)CC)NC1=O
B4: Compound 25 (peptide)
peptide: Ac-ICIWQDWGEHRCTEA-NH2
modifications: disulfide 2-12
SMILES: CC[C@H](C)[C@H](NC(C)=O)C(=O)N[C@H]1CSSC[C@@H](C(=O)N[C@H](C(=O)N[C@@H](CCC(=O)O)C(=O)N[C@@H](C)C(N)=O)[C@@H](C)O)NC(=O)[C@H](CCCNC(=N)N)NC(=O)[C@H](Cc2c[nH]cn2)NC(=O)[C@H](CCC(=O)O)NC(=O)CNC(=O)[C@H](Cc2c[nH]c3ccccc23)NC(=O)[C@H](CC(=O)O)NC(=O)[C@H](CCC(N)=O)NC(=O)[C@H](Cc2c[nH]c3ccccc23)NC(=O)[C@H]([C@@H](C)CC)NC1=O
B5: Compound 26 (peptide)
peptide: Ac-ICIWQDWGEHRCTE-NH2
modifications: disulfide 2-12
SMILES: CC[C@H](C)[C@H](NC(C)=O)C(=O)N[C@H]1CSSC[C@@H](C(=O)N[C@H](C(=O)N[C@@H](CCC(=O)O)C(N)=O)[C@@H](C)O)NC(=O)[C@H](CCCNC(=N)N)NC(=O)[C@H](Cc2c[nH]cn2)NC(=O)[C@H](CCC(=O)O)NC(=O)CNC(=O)[C@H](Cc2c[nH]c3ccccc23)NC(=O)[C@H](CC(=O)O)NC(=O)[C@H](CCC(N)=O)NC(=O)[C@H](Cc2c[nH]c3ccccc23)NC(=O)[C@H]([C@@H](C)CC)NC1=O
B6: Compound 27 (peptide)
peptide: Ac-ICIWQDWGEHRCEGE-NH2
modifications: disulfide 2-12
SMILES: CC[C@H](C)[C@H](NC(C)=O)C(=O)N[C@H]1CSSC[C@@H](C(=O)N[C@@H](CCC(=O)O)C(=O)NCC(=O)N[C@@H](CCC(=O)O)C(N)=O)NC(=O)[C@H](CCCNC(=N)N)NC(=O)[C@H](Cc2c[nH]cn2)NC(=O)[C@H](CCC(=O)O)NC(=O)CNC(=O)[C@H](Cc2c[nH]c3ccccc23)NC(=O)[C@H](CC(=O)O)NC(=O)[C@H](CCC(N)=O)NC(=O)[C@H](Cc2c[nH]c3ccccc23)NC(=O)[C@H]([C@@H](C)CC)NC1=O
B7: Compound 30 (peptide)
peptide: Ac-EGEICIWQDWGEHRCT-NH2
modifications: disulfide 5-15
SMILES: CC[C@H](C)[C@@H]1NC(=O)[C@@H](NC(=O)[C@@H](NC(=O)[C@H](CCC(=O)O)NC(=O)CNC(=O)[C@H](CCC(=O)O)NC(C)=O)[C@@H](C)CC)CSSC[C@@H](C(=O)N[C@H](C(N)=O)[C@@H](C)O)NC(=O)[C@H](CCCNC(=N)N)NC(=O)[C@H](Cc2c[nH]cn2)NC(=O)[C@H](CCC(=O)O)NC(=O)CNC(=O)[C@H](Cc2c[nH]c3ccccc23)NC(=O)[C@H](CC(=O)O)NC(=O)[C@H](CCC(N)=O)NC(=O)[C@H](Cc2c[nH]c3ccccc23)NC1=O
B8: Compound 31 (peptide)
peptide: Ac-ESEICIWQDWGEHRCT-NH2
modifications: disulfide 5-15
SMILES: CC[C@H](C)[C@@H]1NC(=O)[C@@H](NC(=O)[C@@H](NC(=O)[C@H](CCC(=O)O)NC(=O)[C@H](CO)NC(=O)[C@H](CCC(=O)O)NC(C)=O)[C@@H](C)CC)CSSC[C@@H](C(=O)N[C@H](C(N)=O)[C@@H](C)O)NC(=O)[C@H](CCCNC(=N)N)NC(=O)[C@H](Cc2c[nH]cn2)NC(=O)[C@H](CCC(=O)O)NC(=O)CNC(=O)[C@H](Cc2c[nH]c3ccccc23)NC(=O)[C@H](CC(=O)O)NC(=O)[C@H](CCC(N)=O)NC(=O)[C@H](Cc2c[nH]c3ccccc23)NC1=O
B9: Compound 32 (peptide)
peptide: Ac-SEICIWQDWGEHRCTEA-NH2
modifications: disulfide 4-14
SMILES: CC[C@H](C)[C@@H]1NC(=O)[C@@H](NC(=O)[C@@H](NC(=O)[C@H](CCC(=O)O)NC(=O)[C@H](CO)NC(C)=O)[C@@H](C)CC)CSSC[C@@H](C(=O)N[C@H](C(=O)N[C@@H](CCC(=O)O)C(=O)N[C@@H](C)C(N)=O)[C@@H](C)O)NC(=O)[C@H](CCCNC(=N)N)NC(=O)[C@H](Cc2c[nH]cn2)NC(=O)[C@H](CCC(=O)O)NC(=O)CNC(=O)[C@H](Cc2c[nH]c3ccccc23)NC(=O)[C@H](CC(=O)O)NC(=O)[C@H](CCC(N)=O)NC(=O)[C@H](Cc2c[nH]c3ccccc23)NC1=O
B10: Compound 33 (peptide)
peptide: Ac-EICIWQDWGEHRCTE-NH2
modifications: disulfide 3-13
SMILES: CC[C@H](C)[C@@H]1NC(=O)[C@@H](NC(=O)[C@@H](NC(=O)[C@H](CCC(=O)O)NC(C)=O)[C@@H](C)CC)CSSC[C@@H](C(=O)N[C@H](C(=O)N[C@@H](CCC(=O)O)C(N)=O)[C@@H](C)O)NC(=O)[C@H](CCCNC(=N)N)NC(=O)[C@H](Cc2c[nH]cn2)NC(=O)[C@H](CCC(=O)O)NC(=O)CNC(=O)[C@H](Cc2c[nH]c3ccccc23)NC(=O)[C@H](CC(=O)O)NC(=O)[C@H](CCC(N)=O)NC(=O)[C@H](Cc2c[nH]c3ccccc23)NC1=O
B11: Compound 34 (peptide)
peptide: Ac-EICIWQDWGEHRCTEGE-NH2
modifications: disulfide 3-13
SMILES: CC[C@H](C)[C@@H]1NC(=O)[C@@H](NC(=O)[C@@H](NC(=O)[C@H](CCC(=O)O)NC(C)=O)[C@@H](C)CC)CSSC[C@@H](C(=O)N[C@H](C(=O)N[C@@H](CCC(=O)O)C(=O)NCC(=O)N[C@@H](CCC(=O)O)C(N)=O)[C@@H](C)O)NC(=O)[C@H](CCCNC(=N)N)NC(=O)[C@H](Cc2c[nH]cn2)NC(=O)[C@H](CCC(=O)O)NC(=O)CNC(=O)[C@H](Cc2c[nH]c3ccccc23)NC(=O)[C@H](CC(=O)O)NC(=O)[C@H](CCC(N)=O)NC(=O)[C@H](Cc2c[nH]c3ccccc23)NC1=O

Molecular target: Human C3 (Complement tech cat #A113c) (human, UniProt P01024 23-1663)
Assay: cell-based or functional assay

Sequence of Human C3 (Complement tech cat #A113c) (P01024 23-1663 limits assumed): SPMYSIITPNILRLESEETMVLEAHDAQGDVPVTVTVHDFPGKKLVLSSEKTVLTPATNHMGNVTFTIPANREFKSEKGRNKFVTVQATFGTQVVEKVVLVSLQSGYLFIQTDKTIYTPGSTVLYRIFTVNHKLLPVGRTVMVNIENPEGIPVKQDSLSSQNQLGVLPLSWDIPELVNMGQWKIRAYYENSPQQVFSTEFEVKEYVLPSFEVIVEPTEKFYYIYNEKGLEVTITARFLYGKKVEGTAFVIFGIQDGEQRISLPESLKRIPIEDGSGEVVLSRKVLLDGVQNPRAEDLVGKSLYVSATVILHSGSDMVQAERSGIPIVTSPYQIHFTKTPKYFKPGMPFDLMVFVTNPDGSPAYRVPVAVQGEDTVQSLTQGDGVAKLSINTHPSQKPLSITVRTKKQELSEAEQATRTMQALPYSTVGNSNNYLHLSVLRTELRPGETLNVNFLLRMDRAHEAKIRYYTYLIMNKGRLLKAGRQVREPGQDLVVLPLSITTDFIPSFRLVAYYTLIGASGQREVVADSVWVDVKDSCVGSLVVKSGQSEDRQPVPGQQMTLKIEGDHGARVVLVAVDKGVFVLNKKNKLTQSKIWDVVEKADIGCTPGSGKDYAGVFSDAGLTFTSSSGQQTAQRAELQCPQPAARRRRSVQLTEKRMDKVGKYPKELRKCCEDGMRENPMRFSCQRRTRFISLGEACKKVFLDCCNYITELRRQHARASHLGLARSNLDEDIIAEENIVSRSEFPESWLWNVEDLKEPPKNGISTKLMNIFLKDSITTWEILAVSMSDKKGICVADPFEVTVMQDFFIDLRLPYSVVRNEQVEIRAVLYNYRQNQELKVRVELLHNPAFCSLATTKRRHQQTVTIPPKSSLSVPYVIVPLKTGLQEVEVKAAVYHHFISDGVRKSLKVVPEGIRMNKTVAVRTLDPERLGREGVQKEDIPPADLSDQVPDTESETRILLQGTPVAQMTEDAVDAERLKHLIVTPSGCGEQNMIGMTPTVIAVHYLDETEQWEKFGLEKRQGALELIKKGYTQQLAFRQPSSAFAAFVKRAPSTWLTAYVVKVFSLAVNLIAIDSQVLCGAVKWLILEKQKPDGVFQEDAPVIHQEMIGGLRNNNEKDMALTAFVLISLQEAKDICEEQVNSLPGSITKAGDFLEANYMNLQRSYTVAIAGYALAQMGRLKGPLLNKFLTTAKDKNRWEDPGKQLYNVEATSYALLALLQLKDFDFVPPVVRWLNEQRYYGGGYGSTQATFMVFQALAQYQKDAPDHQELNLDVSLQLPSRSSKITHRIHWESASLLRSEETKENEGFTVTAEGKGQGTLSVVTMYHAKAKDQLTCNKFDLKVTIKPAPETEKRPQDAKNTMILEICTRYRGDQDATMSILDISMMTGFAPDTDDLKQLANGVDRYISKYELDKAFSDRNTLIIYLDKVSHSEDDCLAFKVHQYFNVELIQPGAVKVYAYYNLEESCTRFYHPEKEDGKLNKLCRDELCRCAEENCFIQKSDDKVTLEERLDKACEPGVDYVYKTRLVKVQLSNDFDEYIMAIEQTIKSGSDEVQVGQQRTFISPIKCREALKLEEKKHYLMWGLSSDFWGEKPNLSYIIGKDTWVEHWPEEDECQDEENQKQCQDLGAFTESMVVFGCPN

Binder	inhibition of hemolysis IC50 [nM]
B1	< 100
B2	< 100
B3	< 100
B4	< 100
B5	< 100
B6	< 100
B7	< 100
B8	< 100
B9	< 100
B10	< 100
B11	< 250
